From US20260167699A1 (Chugai, published 2026)
Positions count from the first letter of the chain named.

T1: FcγRIIa(R) extracellular domain with C-terminal His tag (human, UniProt P12318 34-217)
T1 construct: extracellular domain; R131 allotype; also called 2aR; CD32
T1 sequence: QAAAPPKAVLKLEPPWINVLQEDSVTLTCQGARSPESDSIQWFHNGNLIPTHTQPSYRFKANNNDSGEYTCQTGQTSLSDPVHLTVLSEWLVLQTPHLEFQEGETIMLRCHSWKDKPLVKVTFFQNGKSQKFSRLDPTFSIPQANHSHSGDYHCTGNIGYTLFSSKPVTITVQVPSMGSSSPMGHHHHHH

T2: FcγRIIa(H) extracellular domain with C-terminal His tag (human, UniProt P12318 34-217)
T2 construct: extracellular domain; H131 allotype; also called 2aH; CD32
T2 sequence: T1 sequence with R134H

T3: FcγRIIb extracellular domain with C-terminal His tag (human, UniProt P31994 43-217)
T3 construct: extracellular domain; also called 2b; CD32
T3 sequence: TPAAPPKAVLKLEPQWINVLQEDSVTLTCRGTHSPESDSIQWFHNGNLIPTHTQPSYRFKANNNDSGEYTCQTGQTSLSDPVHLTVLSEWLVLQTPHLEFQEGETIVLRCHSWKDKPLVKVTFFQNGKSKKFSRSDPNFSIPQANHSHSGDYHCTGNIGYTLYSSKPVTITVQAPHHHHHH

B1: GpH7-A5/GpH7-B3 variant S337_09D/GpL16-k0 (antibody, human IgG1, kappa)
heavy 1: not shown
heavy 2: not shown
light: DIVMTQSPLSLPVTPGEPASISCQASESLVHSNRNTYLHWYLQKPGQSPQLLIYKVSNRFSGVPDRFSGSGSGTDFTLKISRVEAEDVGVYYCSQNTHVPPTFGQGTKVEIERTVAAPSVFIFPPSDEQLKSGTASVVCLLNNFYPREAKVQWKVDNALQSGNSQESVTEQDSKDSTYSLSSTLTLSKADYEKHKVYACEVTHQGLSSPVTKSFNRGEC
notes: heterodimerized IgG1 (He Ab), mutation in one H chain only; also called He Ab
B2: GpH7-A5/GpH7-B3 variant T335_13S/GpL16-k0 (antibody, human IgG1, kappa)
heavy 1: not shown
heavy 2: not shown
light: B1 light
notes: as for B1
B3: GpH7-A5/GpH7-B3 variant T335_08L/GpL16-k0 (antibody, human IgG1, kappa)
heavy 1: not shown
heavy 2: not shown
light: B1 light
notes: as for B1
B4: GpH7-A5/GpH7-B3 variant T335_02A/GpL16-k0 (antibody, human IgG1, kappa)
heavy 1: not shown
heavy 2: not shown
light: B1 light
notes: as for B1
B5: GpH7-A5/GpH7-B3 variant T335_19Q/GpL16-k0 (antibody, human IgG1, kappa)
heavy 1: not shown
heavy 2: not shown
light: B1 light
notes: as for B1
B6: GpH7-A5/GpH7-B3 variant T335_10E/GpL16-k0 (antibody, human IgG1, kappa)
heavy 1: not shown
heavy 2: not shown
light: B1 light
notes: as for B1
B7: GpH7-A5/GpH7-B3 variant T335_01G/GpL16-k0 (antibody, human IgG1, kappa)
heavy 1: not shown
heavy 2: not shown
light: B1 light
notes: as for B1
B8: GpH7-A5/GpH7-B3 variant S337_12R/GpL16-k0 (antibody, human IgG1, kappa)
heavy 1: not shown
heavy 2: not shown
light: B1 light
notes: as for B1
B9: GpH7-A5/GpH7-B3 variant S337_10E/GpL16-k0 (antibody, human IgG1, kappa)
heavy 1: not shown
heavy 2: not shown
light: B1 light
notes: as for B1
B10: GpH7-A5/GpH7-B3 variant T335_16H/GpL16-k0 (antibody, human IgG1, kappa)
heavy 1: not shown
heavy 2: not shown
light: B1 light
notes: as for B1
B11: GpH7-A5/GpH7-B3 variant T335_09D/GpL16-k0 (antibody, human IgG1, kappa)
heavy 1: not shown
heavy 2: not shown
light: B1 light
notes: as for B1
B12: GpH7-A5/GpH7-B3 variant T335_11K/GpL16-k0 (antibody, human IgG1, kappa)
heavy 1: not shown
heavy 2: not shown
light: B1 light
notes: as for B1
B13: GpH7-A5/GpH7-B3 variant T335_18N/GpL16-k0 (antibody, human IgG1, kappa)
heavy 1: not shown
heavy 2: not shown
light: B1 light
notes: as for B1
B14: GpH7-A5/GpH7-B3 variant T335_20W/GpL16-k0 (antibody, human IgG1, kappa)
heavy 1: not shown
heavy 2: not shown
light: B1 light
notes: as for B1
B15: GpH7-A5/GpH7-B3 variant T335_03V/GpL16-k0 (antibody, human IgG1, kappa)
heavy 1: not shown
heavy 2: not shown
light: B1 light
notes: as for B1
B16: GpH7-A5/GpH7-B3 variant T335_12R/GpL16-k0 (antibody, human IgG1, kappa)
heavy 1: not shown
heavy 2: not shown
light: B1 light
notes: as for B1
B17: GpH7-A5/GpH7-B3 variant T335_15Y/GpL16-k0 (antibody, human IgG1, kappa)
heavy 1: not shown
heavy 2: not shown
light: B1 light
notes: as for B1
B18: GpH7-A5/GpH7-B3 variant T335_06M/GpL16-k0 (antibody, human IgG1, kappa)
heavy 1: not shown
heavy 2: not shown
light: B1 light
notes: as for B1
B19: GpH7-A5/GpH7-B3 variant T335_07I/GpL16-k0 (antibody, human IgG1, kappa)
heavy 1: not shown
heavy 2: not shown
light: B1 light
notes: as for B1
B20: GpH7-A5/GpH7-B3 variant T335_05P/GpL16-k0 (antibody, human IgG1, kappa)
heavy 1: not shown
heavy 2: not shown
light: B1 light
notes: as for B1
B21: GpH7-A5/GpH7-B3 variant S337_18N/GpL16-k0 (antibody, human IgG1, kappa)
heavy 1: not shown
heavy 2: not shown
light: B1 light
notes: as for B1
B22: GpH7-A5/GpH7-B3 variant T335_04F/GpL16-k0 (antibody, human IgG1, kappa)
heavy 1: not shown
heavy 2: not shown
light: B1 light
notes: as for B1

Columns and labels:
Experiment in all cases: SPR; % of GpH7-A5/GpH7-B3/GpL16-k0
[1] = biological target: T4, FcγRIa extracellular domain with C-terminal His tag (human, UniProt P12314 16-292)
T4 construct: extracellular domain; also called 1a; CD64

[2] = biological target: T1, FcγRIIa(R) extracellular domain with …
[3] = biological target: T2, FcγRIIa(H) extracellular domain with …
[4] = biological target: T5, FcγRIIIa extracellular domain with C-terminal His tag (human, UniProt P08637 17-208)
T5 construct: extracellular domain; also called 3a; CD16

[5] = biological target: T3, FcγRIIb extracellular domain with …

T4 sequence (P12314 other isoform, or with tags, fused parts or gaps): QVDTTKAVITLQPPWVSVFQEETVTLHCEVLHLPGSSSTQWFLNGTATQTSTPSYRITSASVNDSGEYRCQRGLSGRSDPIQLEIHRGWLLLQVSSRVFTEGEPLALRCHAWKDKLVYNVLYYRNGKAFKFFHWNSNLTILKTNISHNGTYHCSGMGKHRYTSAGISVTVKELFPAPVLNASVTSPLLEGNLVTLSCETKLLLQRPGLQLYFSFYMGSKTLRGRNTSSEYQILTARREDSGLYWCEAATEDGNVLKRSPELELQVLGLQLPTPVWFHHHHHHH
T5 sequence (P08637 other isoform, or with tags, fused parts or gaps): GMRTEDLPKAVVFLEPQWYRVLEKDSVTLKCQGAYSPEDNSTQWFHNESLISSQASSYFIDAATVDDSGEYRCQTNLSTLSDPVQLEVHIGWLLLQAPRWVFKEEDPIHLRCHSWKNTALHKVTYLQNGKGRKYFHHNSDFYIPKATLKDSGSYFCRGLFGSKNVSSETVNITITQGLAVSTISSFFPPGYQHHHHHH

Binder	He/Con 1a [1] [%]	He/Con 2aR [2] [%]	He/Con 2aH [3] [%]	He/Con 3a [4] [%]	He/Con 2b [5] [%]
B1	102	117	114	102	124
B2	108	116	110	100	111
B3	118	114	109	97.8	114
B4	107	108	104	90.9	103
B5	108	112	107	97.7	109
B6	112	117	112	102	118
B7	108	110	107	95.1	106
B8	103	109	105	92.7	108
B9	103	114	109	97.8	117
B10	109	114	109	99.3	112
B11	111	116	111	103	118
B12	114	105	103	91.7	99.4
B13	109	112	107	94.4	111
B14	110	115	109	97.3	114
B15	108	112	107	96.3	109
B16	116	106	103	93.1	100
B17	111	117	110	99.7	118
B18	110	110	106	97	109
B19	113	115	112	102	116
B20	110	109	112	100	109
B21	102	108	106	96.9	113
B22	108	113	107	91.7	112
